Results as given in publication PMC4110903 (Methods in enzymology, 2014).

Biological target: T1, MBP-tagged full length human HSPC300 (human, UniProt Q8WUW1 1-75)
T1 sequence (looked up): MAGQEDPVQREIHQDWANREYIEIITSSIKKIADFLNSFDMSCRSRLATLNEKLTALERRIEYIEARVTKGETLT
Assay: reconstitution and co-elution on anion exchange chromatography

B1: MBP-tagged WAVE217: human WAVE1 (1-217)-(GGS)6-(485-559) (domain or fragment)
chain: MPLVKRNIDPRHLCHTALPRGIKNELECVTNISLANIIRQLSSLSKYAEDIFGELFNEAHSFSFRVNSLQERVDRLSVSVTQLDPKEEELSLQDITMRKAFRSSTIQDQQLFDRKTLPIPLQETYDVCEQPPPLNILTPYRDDGKEGLKFYTNPSYFFDLWKEKMLQDTEDKRKEKRKQKQKNLDRPHEPEKVPRAPHDRRREWQKLAQGPELAEDDGGSGGSGGSGGSGGSGGSKRHPSTLPVISDARSVLLEAIRKGIQLRKVEEQREQEAKHERIENDVATILSRRIAVEYSDSEDDSEFDEVDWLE
B1: binds.
